Laboratory results from patent publication US20200277375A1 (ULTRAHUMAN FOUR, published 2020).

T1: mouse CD47-Fc (mouse, UniProt Q61735 19-140, limits assumed)
T1 construct: Recombinant CD47-Fc; also called mCD47-Fc; mCD37-Fc [sic]; not shown: Fc part
T1 sequence (looked up): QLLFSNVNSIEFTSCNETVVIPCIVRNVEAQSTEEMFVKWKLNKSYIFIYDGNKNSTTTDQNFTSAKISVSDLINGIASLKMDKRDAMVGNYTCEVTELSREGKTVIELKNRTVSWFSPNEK


How the values were obtained:
mouse CD47-Fc [1] = biological target: T1, mouse CD47-Fc; experiment: direct specificity ELISA, IgG 1 µg/ml, FIG. 5
Description: (§1) FIG. 5A-FIG. 5G. Binding specificity analyses for prioritized lead clones. Off-target homologue binding risk for mVH/mVL in IgG1 (FIG. 5A) and IgG1null (FIG. 5B) format and library-derived leads A-D5 (FIG. 5C), VH-A1/VL-B1 (FIG. 5D), F-E7 (FIG. 5E), D-H3 (FIG. 5F), and G-B6 (FIG. 5G) in IgG1null format was examined by direct ELISA on CD47-Fc orthologs and a panel of 14 human immunoglobulin superfamily proteins as labelled on each X-axis (“B” refers to blank). Binding to human, cyno and murine CD47-Fcs (h/c/mCD47-Fc) was performed at an IgG concentration of 1 μg/ml. Binding to all other proteins was performed at an IgG concentration of 10 μg/ml.
(§2) To ensure that that lead clones had not suffered from loss of target specificity during the mutation and reselection process; lead and control IgG1 clones were tested for binding to a panel of 14 purified human proteins from the immunoglobulin superfamily (FIG. 5).

[2] = biological target: T2, cynomolgus monkey CD47-Fc (cynomolgus monkey, UniProt A0A2K5X523 19-139); experiment: direct specificity ELISA, IgG 1 µg/ml, FIG. 5
T2 construct: Recombinant CD47-Fc; also called cyno CD47-Fc; cCD47-Fc; not shown: Fc part
Description: as §1, §2

human CD47-Fc [3] = biological target: T3, human CD47-Fc (human, UniProt Q08722 19-139); experiment: direct specificity ELISA, IgG 1 µg/ml, FIG. 5
T3 construct: Recombinant CD47-Fc; also called hCD47-Fc; not shown: Fc part
Description: as §1, §2

[4] = biological target: T4, human CD47 on cells (human CD47-transfected CHO-K1; HL60) (human, UniProt Q08722 19-323); experiment: flow cytometry, human CD47-transfected CHO-K1, FIG. 6
T4 construct: whole, on cells; also called human CD47+ cells; human CD47+HL60 cells
Description: (§3) FIG. 6A-FIG. 6C. Flow cytometric binding to human and cyno CD47+CHO-K1 cells. Commercial anti-CD47 antibody MS1991, human IgG1 (“I IgG1”) and IgG4 (“I IgG4”) Isotype controls, lead library-derived IgGs in both IgG1null (“IgG1N”) and IgG4(S228P) formats were examined for specific binding on cyno-transfected CHO-K1 cells (FIG. 6A), human-transfected CHO-K1 cells (FIG. 6B), and wild type (wt, i.e. untransfected) CHO-K1 cells (FIG. 6C). IgGs were tested at concentrations ranging from 24-100,000 ng/ml. Concentration-dependent binding was observed against both human and cyno cell lines for all CD47-specific antibodies but not Isotype controls.
(§4) Antibodies to CD47 were analysed for concentration-dependent binding at the cell surface via flow cytometry. CHO-K1 cells were stably transfected with either human, mouse or cyno CD47 full-length cDNAs. Anti-CD47 IgGs mVH/mVL, VH-A1/VL-B1, A-D5, G-B6, F-E7 and D-H3, and an isotype control IgG1 were then all tested in IgG1null and IgG4(S228P) formats, alongside a commercial mouse anti-human CD47 monoclonal MS1991, over a concentration range of 100,000-24 ng/ml for binding to human, cyno or wild type control (‘wt’, i.e. untransfected) CHO-K1.

[5] = biological target: T5, cynomolgus monkey CD47 on transfected CHO-K1 cells (cynomolgus monkey, UniProt A0A5F8AK49 19-323 (rhesus entry)); experiment: flow cytometry, cyno CD47-transfected CHO-K1, FIG. 6
T5 construct: whole, on cells; also called cyno CD47+ cells
Description: as §3, §4

mouse CD47-Fc [6] = biological target: T1, mouse CD47-Fc; experiment: direct specificity ELISA, IgG 10 µg/ml, FIG. 13
[7] = biological target: T2, cynomolgus monkey CD47-Fc; experiment: direct specificity ELISA, IgG 10 µg/ml, FIG. 13
human CD47-Fc [8] = biological target: T3, human CD47-Fc; experiment: direct specificity ELISA, IgG 10 µg/ml, FIG. 13
mouse CD47-Fc [9] = biological target: T1, mouse CD47-Fc; experiment: direct titration ELISA, FIG. 3
Description: (§5) FIG. 3A-FIG. 3H. Direct titration ELISA for IgG binding to human, mouse and cyno CD47-Fc proteins. Chimeric anti-CD47 (mVH/mVL), library-derived clones in human IgG1 null format were titrated (in μg/ml) in a direct binding ELISA against human, mouse and cyno CD47-Fc proteins (FIG. 3A-FIG. 3H). […] Clone TTP lost almost all binding function.
(§6) To coat Greiner Bio-One High bind ELISA plates, target proteins were diluted to 1 μg/ml in carbonate buffer and added at 100 μl per well, at 4° C., o/n. Coated plates were washed 3× with PBS pH7.4, blocked with 1% BSA in PBS (380 μl/well) for 1 hr at RT, then washed 3× with PBS-Tween 20 (PBST). CD47 antibodies (100 μl/well; diluted in PBST) were then added and then incubated 1 hr at RT. Plates were then washed 3× with PBST and goat anti-human kappa chain-HRP added (100 μl/well) at RT, for 1 hr. Plates were then washed 3× with PBST and twice with PBS before the addition of 100 μl TMB per well. Reactions were stopped by adding 100 μl 2M H₂SO₄/well and OD was read on a plate reader at 450 nm.

human CD47-Fc [10] = biological target: T3, human CD47-Fc; experiment: direct titration ELISA, FIG. 3
Description: as §5, §6

mouse CD47-Fc [11] = biological target: T1, mouse CD47-Fc; experiment: direct titration ELISA, FIG. 9C
Description: (§7) FIG. 9A-FIG. 9C. Direct titration ELISA for designer IgGs binding to human, mouse and cyno CD47-Fc proteins. Chimeric anti-CD47 (mVH/mVL), designer A-D5-derived clones in human IgG1null format were titrated (in μg/ml) in a direct binding ELISA against human (FIG. 9A), cyno (FIG. 9B) and mouse (FIG. 9C) CD47-Fc proteins. […] In the figure legend, “IgG1NI” refers to IgG1 null isotype.
as §6

human CD47-Fc [12] = biological target: T3, human CD47-Fc; experiment: direct titration ELISA, FIG. 9A
Description: as §7, §6

Binder	OD450 nm (mouse CD47-Fc [1]) [OD450 nm]	OD450 nm [2] [OD450 nm]	OD450 nm (human CD47-Fc [3]) [OD450 nm]	maximum MFI, fold over untransfected CHO-K1 [4] [fold]	maximum MFI, fold over untransfected CHO-K1 [5] [fold]	further results
G-B6 in human IgG1null format (antibody, V domains shown, IgG1null (L234A/L235A/G237A), kappa) VH: EVQLVQSGAEVKKPGESLKISCKGSGYSFTNYYIFWVRQMPGKGLEWIGDINPVNGDTNFSPSFQGQVTISADKSISTAYLQWSSLKASDTAMYYCARGGYTMDKWGQGTLVTVSS VL: DIVMTQSPLSLPVTPGEPASISCRSSQSLVHSNGYTYLHWYLQKPGQSPQLLIYKGSYRASGVPDRFSGSGSGTDFTLKISRVEAEDVGVYYCSQNTQTPRTFGQGTKVEIK	> 1.25	> 2	> 2	> 10	> 10	–
A-D5.4 in human IgG1null format (antibody, V domains shown, Designer clone from A-D5; IgG1null; also called A-D.4) VH: EVQLVQSGAEVKKPGESLKISCKGSGYTFTNYYIFWVRQMPGKGLEWMGIINPVDGDTNYNPSFQGQVTISADKSISTAYLQWSSLKASDTAMYYCARGGYTMDRWGQGTLVTVSS VL: DIVMTQSPLSLPVTPGEPASISCRSSQSLLHSNGYNYLHWYLQKPGQSPQLLIYKVSNRLSGVPDRFSGSGSGTDFTLKISRVEAEDVGVYYCFQNTHTPRTFGQGTKVEIK	–	–	–	–	–	OD450 nm (mouse CD47-Fc [6]): > 2 OD450 nm; OD450 nm [7]: > 2 OD450 nm; OD450 nm (human CD47-Fc [8]): > 2 OD450 nm
D-H3 in human IgG1null format (antibody, V domains shown, IgG1null (L234A/L235A/G237A), kappa) VH: EVQLVQSGAEVKKPGESLKISCKGSGYSFTNYYIFWVRQMPGKGLEWMGDINPVNGDTNYSPSFQGQVTISADKSISTAYLQWSSLKASDTAMYYCARGGYTPDYWGQGTLVTVSS VL: DIVMTQSPLSLPVTPGEPASISCRSSQSLLHSNGYNYLHWYLQKPGQSPQLLIYKGSNRFSGVPDRFSGSGSGTDFTLKISRVEAEDVGVYYCSQNLHVPRTFGQGTKVEIK	> 1.25	> 2	> 2	> 10	> 10	–
F-E7 in human IgG1null format (antibody, V domains shown, IgG1null (L234A/L235A/G237A), kappa) VH: EVQLVQSGAEVKKPGESLKISCKGSGYSFTNYYIFWVRQMPGKGLEWMGIINPVNGDTNYNPSFQGQVTISADKSISTAYLQWSSLKASDTAMYYCARGGYTMGKWGQGTLVTVSS VL: DIVMTQSPLSLPVTPGEPASISCRSSQSLVHSNGNTYLDWYLQKPGQSPQLLIYKGSYRFSGVPDRFSGSGSGTDFTLKISRVEAEDVGVYYCSQATHTPRTFGQGTKVEIK	> 1.25	> 2	> 2	> 10	> 10	–
MH (Maximally Humanized) in human IgG1null format (antibody, V domains shown, Designer clone; IgG1null, kappa; also called designer clone MH) VH: EVQLVQSGAEVKKPGESLKISCKGSGYSFTNYYIFWVRQMPGKGLEWIGIINPVDGDTRYSPSFQGQVTISADKSISTAYLQWSSLKASDTAMYYCARGGYTMDIWGQGTLVTVSS VL: not shown	–	–	–	–	–	binding result (mouse CD47-Fc [9]): binds; binding result (human CD47-Fc [10]): binds
A-D5.2 in human IgG1null format (antibody, V domains shown, Designer clone from A-D5; IgG1null) VH: EVQLVQSGAEVKKPGESLKISCKGSGYSFTNYYIFWVRQMPGKGLEWMGIINPVDGDTRYNPSFQGQVTISADKSISTAYLQWSSLKASDTAMYYCARGGYTMDRWGQGTLVTVSS VL: DIVMTQSPLSLPVTPGEPASISCRSSQSLLHSNGYTYLHWYLQKPGQSPQLLIYKVSNRLSGVPDRFSGSGSGTDFTLKISRVEAEDVGVYYCFQNTHTPRTFGQGTKVEIK	–	–	–	–	–	binding result (mouse CD47-Fc [11]): binds; binding result (human CD47-Fc [12]): binds
A-D5.8 in human IgG1null format (antibody, V domains shown, Designer clone from A-D5; IgG1null) VH: EVQLVQSGAEVKKPGESLKISCKGSGYTFTNYYIFWVRQMPGKGLEWMGIINPVDGDTNYNPSFQGQVTISADKSISTAYLQWSSLKASDTAMYYCARGGYTMDRWGQGTLVTVSS VL: DIVMTQSPLSLPVTPGEPASISCRSSQSLLHSQGYTYLHWYLQKPGQSPQLLIYKVSNRLSGVPDRFSGSGSGTDFTLKISRVEAEDVGVYYCFQNTHTPRTFGQGTKVEIK	–	–	–	–	–	binding result (mouse CD47-Fc [11]): binds; binding result (human CD47-Fc [12]): binds
A-D5 in human IgG1null format (antibody, V domains shown, IgG1null (IgG1 L234A/L235A/G237A), kappa; also called IgG1 A-D5N) VH: EVQLVQSGAEVKKPGESLKISCKGSGYTFTNYYIFWVRQMPGKGLEWMGIINPVDGDTNYNPSFQGQVTISADKSISTAYLQWSSLKASDTAMYYCARGGYTMDRWGQGTLVTVSS VL: DIVMTQSPLSLPVTPGEPASISCRSSQSLLHSNGYTYLHWYLQKPGQSPQLLIYKVSNRLSGVPDRFSGSGSGTDFTLKISRVEAEDVGVYYCFQNTHTPRTFGQGTKVEIK	> 1.25	> 2	> 2	> 10	> 10	–
